Test results as given in article PMC9517163 (2022).
Residue numbers refer to the chain shown, from its start.

B1: sperm whale ACE2, mFc-tagged (Fc fusion)
chain: QSTTEEQAKTFLQKFDHEAEDLSYQSSLASWNYNTNITDENVQKMNAARAKWSAFYEEQSRTAKTYPLEEIQNLTLKRQLQALQQSGTSVLSADKSKRLNTILNTMSTIYSSGKVLDPNTQECLVLEPGLDDIMENSEDYSRRLWAWEAWRAEVGKQLRPLYEEYVVLENEMARANNYEDYGDYWRGDYEVTGAGDYDYSRDQLITDVERTFAEIKPLYEQLHAYVRAKLMDAYPSRISPTGCLPAHLLGDMWGRFWTNLYPLTVPFGEKSSIDVTKEMRNQSWDAKRIFKEAEKFFVSIGLPNMTQEFWDNSMLTEPGDGRKVVCHPTAWDLGKGDFRIKMCTKVTMDDFLTARHEMGHIQYDMAYATQPYLLRNGANEGFHEAVGEIMSLSAATPHYLKALGLLPPDFYEDSATEINFLLKQALKIVGTLPFTYMLEKWRWMVFKGEIPKEQWMQKWWEMKREIVGVVEPLPHDETYCDPACLFHVAEDYSFIRYYTRTIYQFQFHEALCQAAKHEGPLYKCDISNSTEAGQRLLQMLHLGKSEPWTSALENIVGVKTMDVKPLLNYFEPLLTWLKDQNRNSFVGWSTDWTPYSDQSIKVRISLKSALGEKAYEWNDNEMYLFRSSVAYAMREYFSKVRNETIPFGEEDVRVGDLKPRISFTFFVTSPKNVSDIIPRTEVEEAIRMSRGRINDAFRLDDNSLEFLGIEPTLGPPYEPPVT
B2: minke whale ACE2, mFc-tagged (Fc fusion)
chain: QSTTEEQAKTFLQKFDHEAEDLSYRSSLASWNYNTNITDENVQKMNAARAKWSAFYEEQSRIAKTYPLEEIQNLTLKRQLQALQQSGTSVLSADKSKRLNTILNTMSTIYSSGKVLDPNTQEYLVLEPGLDDIMENSEDYNRRLWAWEGWRAEVGKQLRPFYEEYVVLENEMARANNYEDYGDYWRGDYEVTGADGYDYSRNQLIADVERTFAEIKPLYEQLHAYVRAKLMDAYPSRISPTGCLPAHLLGDMWGRFWTNLYPLTVPFGEKPSIDVTKEMQNQSWDAKRIFKEAEKFFVSIGLPNMTQEFWVNSMLTEPGDGRKVVCHPTAWDLGKGDFRIKMCTKVTMDDFLTAHHEMGHIQYDMAYATQPFLLRNGANEGFHEAVGEIMSLSAATPHYLKALGLLPPDFYEDNVTEINFLLKQALQIVGTLPFTYMLEKWRWMVFKGEIPKEQWMQKWWEMKREIVGVVEPLPHDETYCDPACLFHVAEDYSFIRYYTRTIYQFQFHEALCQTAKHEGPLYKCDISNSTEAGQRLLQMLHLGKSEPWTLALENIVGVKTMDVKPLLNYFEPLLTWLKEQNRNSPVGWSTDWTPYSDQSIKVRISLKSALGEKAYEWNDNEMYLFQSSVAYAMREYFSKVRNETIPFGEKDVWVSDLKPRISFNFFVTTPKNVSDIIPRTEVEEAIRMSRGRINDAFRLDDNSLEFLGIQPTLGPPYEPPVT
B3: fur seal ACE2, mFc-tagged (Fc fusion)
chain: RSTTEDLVKTFLEKFNSEAEELSYQSSFASWNYNTNITDENVQKMNDAGAKWSAFYEEQSKQAKTYPLEEIQDSTVKRQLQALQHSGSSVLSVDKSQRLNTILNAMSTIYSTGKACNPNNPQECLLLEPGLDDIMANSRDYNERLWAWEGWRSEVGKQLRPLYEEYVALKNEMARANNYEDYGDYWRGDYEEEWTNGYNYSRDQLIKDVEQTFTQIQPLYEHLHAYVRAKLMDTYPSHISPTGCLPAHLLGDMWGRFWTNLYPLTVPFGQKPNIDVTDTMVNQSWDARRIFEEAEKFFVSVGLPNMTQGFWENSMLTEPGDSRKVVCHPTAWDLGKHDFRIKMCTKVTMDDFLTAHHEMGHIQYDMAYAAQPFLLRNGANEGFHEAVGEIMSLSAATPKHLKNIGLLPPGFSEDNETDINFLFKQALTIVGTLPFTYMLEKWRWMVFKGEIPKEQWMKKWWEMKRDLVGVVEPLPHDETYCDPASLFHVANDYSFIRYYTRTIYQFQFQEALCQIAKHEGPLHKCDISNSSEAGQTLLQMLKLGRSKPWTLALYRVVGAKNMDVRPLLNYFDPLFTWLKEQNRNSFVGWNTDWSPYADQSIKVRISLKSALGEKAYEWNDNEMYLFRSSIAYAMREYFSKVKKQTIPFVEDNVWVNNLKPRISFTFFVTSPGNMSDIIPRADVEEAIRMSRGRINDAFRLDDNSLEFLGIQPTLEPPYQPPVT
B4: sea lion ACE2, mFc-tagged (Fc fusion)
chain: B3 chain with F28L, V93A, I239M, K643N, T645M
B5: dolphin ACE2, mFc-tagged (Fc fusion)
chain: QSATEERAKTFLQKFDREAEDLSYQSSLASWNYNTNITDENVQKMNAAGAKWSAFYEEQSRIAKTYPLEEIRNLTLKRQLQVLQQSGTSVLSADKSKRLNAILSTMSTIYSSGKVLDPNTQESLVLEPGLDDIMENSKDYNRRLWAWEGWRAEVGKQLRPLYEEYVVLENEMARANNYEDYGDYWRGDYEVTGAGDYDYSRDQLIRDVERTFAEIKPLYEQLHAYVRAKLMDAYPSRISPTGCLPAHLLGDMWGRFWTNLYPLTVPFGERPSIDVTKEMQNQSWDAKRIFKEAEKFFVSIGLPNMTQGFWDNSMLTEPGDGRKVVCHPTAWDLGKGDFRIKMCTKVTMDDFLTAHHEMGHIQYDMAYATQPYLFRNGANEGFHEAVGEIMSLSAATPHYLKALGLLPPDFYEDSATEINFLLKQALTIVGTLPFTYMLEKWRWMVFKGEIPKEQWMQKWWEMKREIVGVVEPLPHDETYCDPACLFHVAEDYSFIRYYTRTIYQFQFHEALCQTAKHEGPLYKCDISNSTEAGQRLLQMLHLGKSEPWTSALERIVGVKTMDVKPLLNYFEPLLTWLKGQNRNSFVGWRTDWTPYSNQSIKVRISLKSALGEKAYEWNDNEMYLFRSSVAYAMREYFSKVRNKTIPFGEKDVWVSDLKPRISFNFFVTSPKNMSDIIPRTEVEEAIRMSRGRINDAFRLDDSSLEFLGVQPTLAPPYEPPVT

Target: SARS-CoV-2 receptor-binding domain (RBD), prototype (SARS-CoV-2, UniProt P0DTC2)
Assay: SPR

Binder | Kd
B1 | 234 nM
B2 | 175 nM
B3 | 129 nM
B4 | 171 nM
B5 | 562 nM
